In paper PMC6299093, “BRCA2 controls DNA:RNA hybrid level at DSBs by mediating RNase H2 recruitment”:

How the values were obtained:
[1] = target: T1, BRCA1 (Homo sapiens, UniProt P38398 1-1863); assay: EMSA; 1 mM EDTA; 10 nM substrate; 25 mM Tris-HCl pH 7.5, 90 mM KCl, 1 mM EDTA, 1 mM DTT, 0.1 mg/ml BSA, RNaseOUT; 37 C 30 min; 10 nM substrate (competition: 1 nM, 10 + 10 min); 6% native PAGE at 4 C; conditions: protein: recombinant; tags: C-terminal 10xHis; N-terminal 2xMBP cleaved off with PreScission; blunt
[2] = target: T2, BRCA1;BARD1 (Homo sapiens;Homo sapiens, UniProt P38398;Q99728 1-1863;1-777, |); assay: EMSA; 1 mM EDTA; 10 nM substrate; resistant to increasing salt (Supplementary Fig. 5a); 25 mM Tris-HCl pH 7.5, 90 mM KCl, 1 mM EDTA, 1 mM DTT, 0.1 mg/ml BSA, RNaseOUT; 37 C 30 min; 10 nM substrate (competition: 1 nM, 10 + 10 min); 6% native PAGE at 4 C; conditions: protein: recombinant;recombinant; tags: C-terminal 10xHis; N-terminal 2xMBP cleaved off with PreScission;; copies: 1;1; blunt
[3] = target: T1, BRCA1; assay: EMSA; 1 mM EDTA; 10 nM substrate; affinity comparable to dsDNA; 25 mM Tris-HCl pH 7.5, 90 mM KCl, 1 mM EDTA, 1 mM DTT, 0.1 mg/ml BSA, RNaseOUT; 37 C 30 min; 10 nM substrate (competition: 1 nM, 10 + 10 min); 6% native PAGE at 4 C; conditions: protein: recombinant; tags: C-terminal 10xHis; N-terminal 2xMBP cleaved off with PreScission; blunt
[4] = target: T2, BRCA1;BARD1; assay: EMSA; 1 mM EDTA; 10 nM substrate; affinity comparable to dsDNA; resistant to increasing salt (Supplementary Fig. 5a); 25 mM Tris-HCl pH 7.5, 90 mM KCl, 1 mM EDTA, 1 mM DTT, 0.1 mg/ml BSA, RNaseOUT; 37 C 30 min; 10 nM substrate (competition: 1 nM, 10 + 10 min); 6% native PAGE at 4 C; conditions: protein: recombinant;recombinant; tags: C-terminal 10xHis; N-terminal 2xMBP cleaved off with PreScission;; copies: 1;1; blunt

| Binder | binding result [1] | binding result [2] | binding result [3] | binding result [4] |
| --- | --- | --- | --- | --- |
| X12-3/X12-4C dsDNA 50 bp (dsDNA) DNA 1: GACGTCATAGACGATTACATTGCTAGGACATGCTGTCTAGAGACTATCGC DNA 2: GCGATAGTCTCTAGACAGCATGTCCTAGCAATGTAATCGTCTATGACGTC | binds | binds | – | – |
| X12-3 DNA/X12-4C RNA hybrid 50 bp (DNA:RNA, second strand RNA) DNA: GACGTCATAGACGATTACATTGCTAGGACATGCTGTCTAGAGACTATCGC RNA: GCGAUAGUCUCUAGACAGCAUGUCCUAGCAAUGUAAUCGUCUAUGACGUC | – | – | binds | binds |
